Values quoted from earlier work as cited in publication PMC11121562.

Molecular target: Cyclin C (Homo sapiens) (UniProt P24863)
UniProt P24863, sequence (P24863 whole entry): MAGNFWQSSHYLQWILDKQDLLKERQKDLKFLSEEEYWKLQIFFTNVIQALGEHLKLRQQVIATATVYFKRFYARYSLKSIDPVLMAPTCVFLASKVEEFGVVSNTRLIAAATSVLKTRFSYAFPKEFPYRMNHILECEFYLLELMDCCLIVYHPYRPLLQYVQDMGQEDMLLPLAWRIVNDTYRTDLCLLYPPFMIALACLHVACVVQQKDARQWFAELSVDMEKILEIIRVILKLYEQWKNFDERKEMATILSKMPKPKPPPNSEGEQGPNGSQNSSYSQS

Kd: 7.05 nM
Substance: CDK8 (from UniProt P49336)
